The values that follow come from article PMC12593833.

Experiment [1] deals with synthetic D-streptavidin (mirror-image streptavidin) (S. avidinii). The experiment can be described thus: SEC; analytical SEC of the folded proteins, with molecular weight standards. Background: Size exclusion chromatography separates by hydrodynamic size, large species first.
Experiment [2] deals with synthetic L-streptavidin (S. avidinii). Described as above.

For “synthetic D-streptavidin (mirror-image streptavidin)”, the stoichiometry N (as a rule, a count of units in the complex or per binding partner) in experiment [1] was determined as 4.
Consider “synthetic L-streptavidin (natural protein)”, for which the stoichiometry N in experiment [2] came out at 4.
